PMC4680927

Legend:
[1] = biological target: full-length β-N-acetylglucosaminidase from Rhizomucor miehei (RmNag) (Rhizomucor miehei); assay: SEC; size-exclusion chromatography of full-length RmNag; native molecular mass approx. 230 kDa; data not shown
[2] = biological target: N-acetyltransferase C-terminal region (CTR) of RmNag (Rhizomucor miehei); assay: not stated; NTR and CTR 'in solution'; the sentence names no method (it follows the SEC estimate for the full-length protein)

## full-length β-N-acetylglucosaminidase from Rhizomucor miehei (RmNag) (enzyme)
[1]
  stoichiometry N: 2

## N-acetyltransferase C-terminal region (CTR) of RmNag (domain or fragment)
[2]
  stoichiometry N: 2
